Experimental data: publication PMC4454452 (The Biochemical journal, 2014)

How the values were obtained:
[1] = system: H3K4me3, H3K9me3 and H3K27me3; settings: previously demonstrated; cited from earlier work
CHD4 PHD2 finger = CHD4 PHD2 finger (Homo sapiens, UniProt Q14839); settings: read-out: Kd of CHD4 PHD2 for histone peptide; cited from earlier work
GST-fusion CHD4 PHD2 = GST-fusion CHD4 PHD2 (Homo sapiens, UniProt Q14839); assay: Pull-down of GST-CHD4 PHD2 by biotinylated histone peptides in the absence of 2; format: binding; settings: absence of 2, Western blot
Chain of GST-fusion CHD4 PHD2 (Q14839 449-496 limits assumed): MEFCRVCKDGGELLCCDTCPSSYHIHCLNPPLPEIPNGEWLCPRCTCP

Chain of CHD4 PHD2 finger (Q14839 449-496 limits assumed): as above

O=S(=O)(O)c1cc2c(O)c(c1)Cc1cc(S(=O)(=O)O)cc(c1O)Cc1cc(S(=O)(=O)O)cc(c1O)Cc1cc(S(=O)(=O)O)cc(c1O)C2 [Compound 1, p-sulfonatocalix[4]arene]
binding to trimethylated lysine peptides H3K4me3, H3K9me3 and H3K27me3 [1]: equally well

H3K4me3: biotinylated histone H3 peptide (residues 1–20) trimethylated at Lys4 [Compound H3K4me3]
Kd (CHD4 PHD2 finger): ~2 mM
binding of GST–CHD4 PHD2 to biotinylated histone peptide (GST-fusion CHD4 PHD2): significantly weaker

H3K27me3: biotinylated histone H3 peptide (residues 21–44) trimethylated at Lys27 [Compound H3K27me3]
binding of GST–CHD4 PHD2 to biotinylated histone peptide (GST-fusion CHD4 PHD2): no interaction
